Source: US20220281980A1 (Bristol-Myers Squibb, published 2022)
Several values for one entry are separate records, joined by “and”; a condition that tells them apart may be missing. Equal entries are not always repeated. Values belong to the binder of their own block, whether it stands above or below them.

How the values were obtained:
[1] = molecular target: T1, cynomolgus monkey MICA/B clone #6 expressed on CHO cells (cynomolgus monkey); assay: flow cytometry, transfected CHO cells
T1 construct: whole, on cells; also called cyno#6; CHO-cyno MICA clone #6

[2] = molecular target: T2, human MICB expressed on transduced cells (human, UniProt Q29980 23-382); assay: flow cytometry, transfected CHO cells
T2 construct: also called MICB*005
T2 chain: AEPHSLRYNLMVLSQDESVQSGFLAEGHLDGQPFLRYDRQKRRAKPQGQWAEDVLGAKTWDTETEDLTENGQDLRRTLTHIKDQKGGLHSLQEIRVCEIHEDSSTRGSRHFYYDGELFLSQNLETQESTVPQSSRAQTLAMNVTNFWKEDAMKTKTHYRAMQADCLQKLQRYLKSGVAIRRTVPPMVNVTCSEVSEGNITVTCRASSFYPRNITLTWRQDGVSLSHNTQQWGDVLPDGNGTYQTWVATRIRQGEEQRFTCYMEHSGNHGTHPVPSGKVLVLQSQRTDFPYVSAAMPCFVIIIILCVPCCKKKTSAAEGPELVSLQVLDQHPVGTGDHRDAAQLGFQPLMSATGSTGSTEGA

[3] = molecular target: T3, cynomolgus monkey MICA/B clone #4 expressed on CHO cells (cynomolgus monkey); assay: flow cytometry, transfected CHO cells
T3 construct: whole, on cells; also called cyno#4; CHO-cyno MICA clone #4

[4] = molecular target: T4, recombinant soluble human MICA*004 antigen (human, UniProt Q29983 24-307); assay: SPR (Biacore 3000), antibody captured on Protein G chip, huMICA-his analyte; power of ten not given
T4 construct: also called huIMICA-his allele *004
T4 chain: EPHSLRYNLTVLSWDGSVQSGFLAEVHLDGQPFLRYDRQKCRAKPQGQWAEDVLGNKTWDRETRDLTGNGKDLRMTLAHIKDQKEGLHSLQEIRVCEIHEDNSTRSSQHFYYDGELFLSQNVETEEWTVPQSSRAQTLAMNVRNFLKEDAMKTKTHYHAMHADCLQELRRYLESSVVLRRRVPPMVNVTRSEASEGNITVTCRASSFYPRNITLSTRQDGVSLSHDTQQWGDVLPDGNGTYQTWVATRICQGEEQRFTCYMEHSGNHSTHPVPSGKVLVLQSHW
Protocol: (§1) Kinetics and affinity of anti-MICA/B antibodies MICA.2, 19G6, 16A5, and 71C2 towards human MICA alleles (huIMICA-his allele *002, *004, *008, and *009) were also determined on a BIACORE 3000® instrument using the following conditions: [0571] Running Buffer: HES-EP running buffer [0572] Chip: CM5 Protein G Chip Fc1: Blank. Fc2-4: ˜200Rus [0573] Ab: 5 ug/mL, 10 uL @ 10 uL/min [0574] Ag binding: 5 min association, 7 min dissociation @ 25 uL/min, [0575] Regeneration: Glycine 1.7, 10 uL @ 100 uL/min followed by 60s wash by HES-EP

[5] = molecular target: T5, recombinant soluble human MICA*008 antigen (human, UniProt Q29983 24-307); assay: as above
T5 construct: also called huIMICA-his allele *008; recombinant soluble MICA (allele 8)
T5 chain: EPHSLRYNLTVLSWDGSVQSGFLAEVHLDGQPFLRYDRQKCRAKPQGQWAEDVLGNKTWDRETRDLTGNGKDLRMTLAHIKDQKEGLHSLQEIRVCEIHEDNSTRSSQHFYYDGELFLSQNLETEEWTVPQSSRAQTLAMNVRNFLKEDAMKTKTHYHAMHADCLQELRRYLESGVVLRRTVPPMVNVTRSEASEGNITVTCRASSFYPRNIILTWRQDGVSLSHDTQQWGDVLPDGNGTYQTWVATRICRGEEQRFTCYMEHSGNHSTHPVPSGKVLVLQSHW
Protocol: as §1

[6] = molecular target: T6, recombinant soluble human MICA*002 antigen (human, UniProt Q29983 24-307); assay: as above
T6 construct: also called huIMICA-his allele *002
T6 chain: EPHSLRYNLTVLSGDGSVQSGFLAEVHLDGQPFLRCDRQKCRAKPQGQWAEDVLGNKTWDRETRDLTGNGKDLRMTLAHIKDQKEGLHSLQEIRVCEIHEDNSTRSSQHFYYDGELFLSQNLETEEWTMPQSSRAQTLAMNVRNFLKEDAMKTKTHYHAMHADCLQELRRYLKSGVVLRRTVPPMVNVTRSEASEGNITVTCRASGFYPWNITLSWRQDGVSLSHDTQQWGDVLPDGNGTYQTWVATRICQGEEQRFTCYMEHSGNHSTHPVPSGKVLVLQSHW
Protocol: as §1

[7] = molecular target: T7, recombinant soluble human MICA*009 antigen (human, UniProt Q29983 24-307); assay: as above
T7 construct: also called huIMICA-his allele *009
T7 chain: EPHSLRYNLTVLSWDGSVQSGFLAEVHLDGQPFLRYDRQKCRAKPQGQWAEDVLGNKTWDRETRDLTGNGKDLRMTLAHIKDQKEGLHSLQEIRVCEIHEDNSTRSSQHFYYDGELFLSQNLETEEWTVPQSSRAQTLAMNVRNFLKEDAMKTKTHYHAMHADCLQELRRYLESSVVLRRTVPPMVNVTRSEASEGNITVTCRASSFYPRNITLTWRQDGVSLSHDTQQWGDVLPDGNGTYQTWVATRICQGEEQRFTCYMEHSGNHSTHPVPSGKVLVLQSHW
Protocol: as §1

[8] = molecular target: T4, recombinant soluble human MICA*004 …; assay: SPR (Biacore 3000), antibody captured on Protein G chip, huMICA-his analyte
Protocol: as §1

[9] = molecular target: T5, recombinant soluble human MICA*008 …; assay: as above
Protocol: as §1

[10] = molecular target: T6, recombinant soluble human MICA*002 …; assay: as above
Protocol: as §1

[11] = molecular target: T7, recombinant soluble human MICA*009 …; assay: as above
Protocol: as §1

[12] = molecular target: T8, human MICA/B endogenously expressed on 786-O cells (MICA allele *008) (human, UniProt Q29983 24-331); assay: flow cytometry, tumor cells with endogenous MICA/B (column Binding EC50)
T8 construct: it speaks of MICA/B, so MICB may be present as well; also called 786-0
T8 chain: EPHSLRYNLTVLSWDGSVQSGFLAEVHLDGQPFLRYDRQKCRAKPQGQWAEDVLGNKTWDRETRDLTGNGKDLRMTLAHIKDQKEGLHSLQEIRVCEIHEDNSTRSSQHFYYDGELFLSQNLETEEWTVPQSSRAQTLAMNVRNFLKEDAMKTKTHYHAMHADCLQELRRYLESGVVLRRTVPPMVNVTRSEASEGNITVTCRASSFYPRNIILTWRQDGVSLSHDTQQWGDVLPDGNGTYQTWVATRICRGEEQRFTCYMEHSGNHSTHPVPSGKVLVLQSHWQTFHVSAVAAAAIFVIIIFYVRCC

[13] = molecular target: T9, human MICA/B endogenously expressed on HeLa cells (MICA allele *008) (human, UniProt Q29983 24-331); assay: as above
T9 construct: it speaks of MICA/B, so MICB may be present as well
T9 chain: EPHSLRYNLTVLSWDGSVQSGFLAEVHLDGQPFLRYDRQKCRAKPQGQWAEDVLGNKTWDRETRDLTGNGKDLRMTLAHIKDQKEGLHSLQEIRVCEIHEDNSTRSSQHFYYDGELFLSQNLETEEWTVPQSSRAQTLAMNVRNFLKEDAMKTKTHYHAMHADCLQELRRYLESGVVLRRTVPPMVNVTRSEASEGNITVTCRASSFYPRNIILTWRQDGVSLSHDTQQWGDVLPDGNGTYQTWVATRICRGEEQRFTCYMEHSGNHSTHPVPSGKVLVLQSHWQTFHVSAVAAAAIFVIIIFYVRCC

[14] = molecular target: T10, human MICA/B endogenously expressed on RPMI-8226 cells (human, UniProt Q29983 24-383); assay: flow cytometry, tumor cells with endogenous MICA/B
T10 construct: whole, on cells
T10 sequence (looked up): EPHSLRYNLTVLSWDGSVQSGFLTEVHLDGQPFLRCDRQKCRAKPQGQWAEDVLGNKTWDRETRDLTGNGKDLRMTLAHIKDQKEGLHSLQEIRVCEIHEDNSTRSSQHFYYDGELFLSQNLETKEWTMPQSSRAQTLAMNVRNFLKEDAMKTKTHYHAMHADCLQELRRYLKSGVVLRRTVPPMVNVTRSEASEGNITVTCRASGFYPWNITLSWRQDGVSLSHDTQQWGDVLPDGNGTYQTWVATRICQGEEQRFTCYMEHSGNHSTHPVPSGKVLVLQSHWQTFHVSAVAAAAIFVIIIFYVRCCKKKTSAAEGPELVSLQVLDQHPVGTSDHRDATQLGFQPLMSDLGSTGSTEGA
Protocol: Serial dilutions of MICA.36-IgG1-NF-G236A mAb were incubated with CHO cells transduced with human MICA/B common alleles or human tumor cell lines that endogenously express MICA/B. Cells were then washed twice, and cell bound antibodies were detected using a secondary anti-human antibody conjugated with a fluorophore. Flow cytometric analyses were performed using a FACSCantoII or FACS Fortessa X-20 flow cytometer. The geometric mean fluorescence intensity of MICA.36-IgG1-NF-G236A mAb bound to cells was determined using FlowJo analysis software. Dose-response curves were generated and EC50s calculated using Prism software.
MICA.36-IgG1-NF-G236A bound to endogenously expressed MICA/B on a variety of human tumor cell lines (FIG. 8B).

[15] = molecular target: T2, human MICB expressed on transduced cells; assay: cell-based or functional assay
[16] = molecular target: T8, human MICA/B endogenously expressed on …; assay: cell-based or functional assay
[17] = molecular target: T9, human MICA/B endogenously expressed on …; assay: cell-based or functional assay

EC50 [1]: 9.26 nM and 13.8 nM
EC50 [2]: 8.16 nM and 21.6 nM
EC50 [3]: 0.856 nM and 2.38 nM
koff [4]: 1.72 s⁻¹
koff [5]: 1.72 s⁻¹
koff [6]: 0.0104 s⁻¹
koff [7]: 2.15 s⁻¹
Kd [8]: 6.89 nM
Kd [9]: 4.55 nM
Kd [10]: 147 nM
Kd [11]: 12.9 nM
B1: 16A5 (antibody, V domains shown)
VH: QVQLVESGGDVVQPGRSLRLSCAASGFTFSNYNIHWVRQAPGKGLEWVAVIRYDGINKYYADSVKGRFIISRDNSKNTLYLQMNSLRAEDTAVYYCASGPPDAFNIWGQGTMVTVSS
VL: AIQLTQSPSSLSASVGDRVTITCRASQGISSALAWYQQKPGKVPKSLIYDASSLESGVPSRFSGSGSGTDFTLTISSLQPEDFATYYCQQFNSYPITFGQGTRLEIK
notes: Hybridoma antibody; #1 and #2 are two hybridoma lines from the same clone; also called 16A5 (#1); 16A5 (#2)

EC50 [12]: 1.37 nM
EC50 [13]: 1.76 nM
EC50 [14]: 3.9 nM
OT-I CD8+ T cell proliferation (antigen cross-presentation) EC50 [15]: 1.6 nM
antibody dependent cellular phagocytosis (ADCP) EC50 [15]: 10.7 nM
Fold increase in surface MICA [16]: 1.47 fold
MICA retention EC50 [16]: 0.057 nM
Reduction in sMICA EC50 [16]: 0.14 nM
Fold increase in surface MICA [17]: 1.43 fold
MICA retention EC50 [17]: 0.032 nM
Reduction in sMICA EC50 [17]: 0.1 nM
B2: MICA.36-IgG1-NF-G236A (antibody)
heavy: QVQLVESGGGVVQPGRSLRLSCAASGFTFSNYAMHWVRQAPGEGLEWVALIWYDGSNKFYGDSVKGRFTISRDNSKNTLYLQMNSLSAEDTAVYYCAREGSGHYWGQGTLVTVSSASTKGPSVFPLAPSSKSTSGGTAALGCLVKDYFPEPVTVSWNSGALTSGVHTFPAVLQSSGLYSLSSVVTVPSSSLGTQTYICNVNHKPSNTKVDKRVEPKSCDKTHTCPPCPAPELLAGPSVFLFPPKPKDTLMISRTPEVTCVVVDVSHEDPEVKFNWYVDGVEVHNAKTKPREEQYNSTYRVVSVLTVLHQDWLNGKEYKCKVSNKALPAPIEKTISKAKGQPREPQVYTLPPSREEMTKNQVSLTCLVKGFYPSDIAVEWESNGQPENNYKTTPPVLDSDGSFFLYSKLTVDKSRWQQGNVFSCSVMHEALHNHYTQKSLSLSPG
light: AIQLTQSPSSLSASVGDRVTITCRASQGISSALAWYQQKPGKVPKSLIYDASSLESGVPSRFSGSGSGTDFTLTISSLQPEDFATYYCQQFNSYPITFGQGTRLEIKRTVAAPSVFIFPPSDEQLKSGTASVVCLLNNFYPREAKVQWKVDNALQSGNSQESVTEQDSKDSTYSLSSTLTLSKADYEKHKVYACEVTHQGLSSPVTKSFNRGEC
modifications: non-fucosylated (expressed in FUT8-knock-out CHO cells)
notes: Human IgG1 with G236A (EU numbering); also called MICA.36 NF G236A; MICA.36-NF-G236A
